Read-outs that look alike come from different tables or passages of the source.
What was measured:
CaFADS [1] = details: 25 °C; for Kd: 20 mM PIPES pH 7.0
Experimental: Measurements were carried out using a high precision VP-ITC (MicroCal LLC, Northampton, MA, USA) following the procedure described previously. Typically, 200 μM FAD or FMN and 300 μM ATP solutions were used to titrate ~20 μM CaFADS. Ligand and CaFADS were dissolved in 20 mM PIPES, pH 7.0, at the indicated MgCl2 concentration. Control titrations were performed by injecting ligand into buffer solution. The association constant, the enthalpy change (ΔH) and the stoichiometry, or their average values, were obtained through non-linear regression of the experimental data to a home derived model for one or two independent binding sites implemented in Origin 7.0 (OriginLab Corporation, Northampton, MA, 2002) (see Supplementary Material). The Kd, the free energy change (ΔG), and the entropy change (ΔS) were obtained from basic thermodynamic relationships. Experiments were performed in duplicate or triplicate.
The association constant (Ka), the enthalpy change (ΔH) and the stoichiometry (N), or their average values, were obtained through non-linear regression of the experimental data to a model for one or two independent binding sites implemented in Origin 7.0 (OriginLab Corporation, Northampton, MA, USA, 2002).
The nominal protein concentration was normalised by a factor n (nP0, instead of P0) accounting for either the stoichiometry or the fraction of active (binding-competent) protein.

[2] = Thermal denaturation by differential scanning calorimetry (DSC); type: physicochemical; details: 20 mM PIPES, 10 mM MgCl2, pH 7.0
Experimental: Thermal stability was determined with a VP-DSC microcalorimeter (MicroCal LLC, Northampton, MA, USA). Protein samples and reference solutions were degassed and carefully loaded into the cells to avoid bubble formation. The baseline of the instrument was routinely recorded before the experiments with both cells filled with buffer. […] Errors in the Tm,app data are within ±0.3–0.5 °C.

CaFADS [3] = details: FADpp activity; 37 °C, 20 mM PIPES, 10 mM MgCl2, pH 7.0
Experimental: The CaFADS FMNAT and FADpp activities were fluorimetrically measured using a continuous assay. […] Measurements were performed in a Cary Eclipse spectrophotofluorimeter with excitation and emission wavelengths at 420 nm and 530 nm, respectively. FAD and FMN fluorescence were individually calibrated using standard solutions. The rate of FAD formation was calculated from the rate of fluorescence decrease (ΔF/Δt), measured as the tangent to the initial part of the experimental curve by applying the equation:
where ΔF is the decrease in the value of the fluorescence expressed in arbitrary units, Δt is the measurement of reaction time expressed in per minute, and KFMN and KFAD are the FMN and FAD fluorescent rate constants expressed in per micromolar [37]. The kinetic data obtained for one substrate at saturated concentrations of the second one were interpreted using the Michaelis-Menten kinetic model.

CaFADS [4] = target: T1, CaFADS (Corynebacterium ammoniagenes, UniProt Q59263); parameters: method as in PMID 22892871; details: FMNAT activity; 37 °C, 20 mM PIPES, 10 mM MgCl2, pH 7.0; cited from earlier work
T1 construct: made in house; host or cells: E. coli (pET28a-CaFADS plasmid)

CaFADS [5] = target: T1, CaFADS; details: RFK activity, cited from earlier work
[6] = ligand ATP, 10 mM Mg^2+, pH 7.0
[7] = ligand FAD, 10 mM Mg^2+, pH 7.0
[8] = ligand FMN, 10 mM Mg^2+, pH 7.0

B1: WT: wild-type FAD synthetase from Corynebacterium ammoniagenes (CaFADS), over-expressed in E. coli (protein)
chain: MDIWYGTAAVPKDLDNSAVTIGVFDGVHRGHQKLINATVEKAREVGAKAIMVTFDPHPVSVFLPRRAPLGITTLAERFALAESFGIDGVLVIDFTRELSGTSPEKYVEFLLEDTLHASHVVVGANFTFGENAAGTADSLRQICQSRLTVDVIDLLDDEGVRISSTTVREFLSEGDVARANWALGRHFYVTGPVVRGAGRGGKELGFPTANQYFHDTVALPADGVYAGWLTILPTEAPVSGNMEPEVAYAAAISVGTNPTFGDEQRSVESFVLDRDADLYGHDVKVEFVDHVRAMEKFDSVEQLLEVMAKDVQKTRTLLAQDVQAHKMAPETYFLQAES
With B1 as the molecule, how does the “ΔG FADS:ATP” value (CaFADS [1]; ligand ATP, 0 mM Mg^2+, pH 7.0) read?
Its value is -7.2 kcal/mol.

What about the “ΔH FADS:ATP” value (CaFADS [1]; ligand ATP, 0 mM Mg^2+, pH 7.0) of the same molecule?
Its value is -31 kcal/mol.

And the “−TΔS FADS:ATP” value (CaFADS [1]; ligand ATP, 0 mM Mg^2+, pH 7.0)?
The value was 24 kcal/mol.

And the “ΔG FADS:ATP” value (CaFADS [1]; [6])?
The value was -6.2 kcal/mol.

And the “ΔH FADS:ATP” value (CaFADS [1]; [6])?
Its value is -30 kcal/mol.

And the “−TΔS FADS:ATP” value (CaFADS [1]; [6])?
The value was 23 kcal/mol.

What about the “ΔG FADS:FAD” value (CaFADS [1]; [7]) of the same molecule?
The value was -8.4 kcal/mol.

And the “ΔH FADS:FAD” value (CaFADS [1]; [7])?
The value was -26 kcal/mol.

What about the “−TΔS FADS:FAD” value (CaFADS [1]; [7]) of the same molecule?
The value was 18 kcal/mol.

And the “ΔG FADS:FMN” value (CaFADS [1]; [8])?
The value was -7.0 kcal/mol.

And the “ΔH FADS:FMN” value (CaFADS [1]; [8])?
The value was -35 kcal/mol.

And the “−TΔS FADS:FMN” value (CaFADS [1]; [8])?
The value was 28 kcal/mol.

What about the Kd (CaFADS [1]; read-out: Kd FADS:ATP (average, Kd,av^ATP:Mg, for two ATP:Mg^2+ binding sites), ligand ATP, 10 mM Mg^2+) of the same molecule?
The Kd was 30 µM.

What about the Kd (CaFADS [1]; read-out: Kd FADS:ATP, ligand ATP, 0 mM Mg^2+) of the same molecule?
Its Kd is 5.5 µM.

What about the Kd (CaFADS [1]; read-out: Kd FADS:FAD, ligand FAD, 10 mM Mg^2+) of the same molecule?
The Kd was 0.7 µM.

And the Kd (CaFADS [1]; read-out: Kd FADS:FMN, ligand FMN, 10 mM Mg^2+)?
Its Kd is 7.8 µM.

What about the “Tm,app” value [2] of the same molecule?
Its value is 42.5 °C.

And the kcat (CaFADS [3])?
The kcat was 0.217 s⁻¹.

What about the kcat (CaFADS [4]) of the same molecule?
Its kcat is 0.283 s⁻¹.

And the “kcat (apparent)” value (CaFADS [5]; saturated ATP, varying RF, 37 °C, 0.8 mM MgCl2, pH 7.0)?
Its value is 5.02 s⁻¹.

And the “kcat (apparent)” value (CaFADS [5]; varying ATP, RF concentration exhibiting ~80% maximal activity)?
Its value is 1.13 s⁻¹.

Source: article PMC3509593, “Role of Key Residues at the Flavin Mononucleotide (FMN):Adenylyltransferase Catalytic Site of the Bifunctional Riboflavin Kinase/Flavin Adenine Dinucleotide (FAD) Synthetase from Corynebacterium ammoniagenes” (International Journal of Molecular Sciences, 2012)
